{"source": "patent US20190330320A1", "about": "(H LUNDBECK A S, published 2019)", "binders": {"B1": {"name": "Antibody N32Q (hC10-2_N32Q) (antibody, human IgG1, kappa, V domains shown)", "VH": "QVQLVQSGAEVVKPGASVKISCKASGYTFTDRTIHWVRQAPGQGLEWIGYIYPGDGSTKYSQKFQGRATLTADTSASTAYMELSSLRSEDTAVYYCARRGAMDYWGQGTSVTVSS", "VL": "DVQMTQSPSSLSASVGDRVTMTCQASQDTSIQLNWFQQKPGKAPKLLIYGASNLETGVPSRFSGSRSGTDFTLTISSLQPEDMATYYCLQHTYLPFTFGSGTKLEIKR"}, "B2": {"name": "hC10-2 variant N32Q_D55E (antibody, human IgG1, kappa, V domains shown)", "VH": "QVQLVQSGAEVVKPGASVKISCKASGYTFTDRTIHWVRQAPGQGLEWIGYIYPGEGSTKYSQKFQGRATLTADTSASTAYMELSSLRSEDTAVYYCARRGAMDYWGQGTSVTVSS", "VL": "DVQMTQSPSSLSASVGDRVTMTCQASQDTSIQLNWFQQKPGKAPKLLIYGASNLETGVPSRFSGSRSGTDFTLTISSLQPEDMATYYCLQHTYLPFTFGSGTKLEIKR", "notes": "Chains are put together from the variant names: light chain N32Q and heavy chain D55E"}, "B3": {"name": "hC10-2 variant N32S_D55E (antibody, human IgG1, kappa, V domains shown)", "VH": "QVQLVQSGAEVVKPGASVKISCKASGYTFTDRTIHWVRQAPGQGLEWIGYIYPGEGSTKYSQKFQGRATLTADTSASTAYMELSSLRSEDTAVYYCARRGAMDYWGQGTSVTVSS", "VL": "DVQMTQSPSSLSASVGDRVTMTCQASQDTSISLNWFQQKPGKAPKLLIYGASNLETGVPSRFSGSRSGTDFTLTISSLQPEDMATYYCLQHTYLPFTFGSGTKLEIKR", "notes": "Chains are put together from the variant names: light chain N32S and heavy chain D55E; also called C10-2_N32S D55E"}, "B4": {"name": "Antibody N32Q, A101T (hC10-2_N32Q_A101T) (antibody, human IgG1, kappa, V domains shown)", "VH": "QVQLVQSGAEVVKPGASVKISCKASGYTFTDRTIHWVRQAPGQGLEWIGYIYPGDGSTKYSQKFQGRATLTADTSASTAYMELSSLRSEDTAVYYCARRGTMDYWGQGTSVTVSS", "VL": "DVQMTQSPSSLSASVGDRVTMTCQASQDTSIQLNWFQQKPGKAPKLLIYGASNLETGVPSRFSGSRSGTDFTLTISSLQPEDMATYYCLQHTYLPFTFGSGTKLEIKR"}, "B5": {"name": "Ptau (P396) 386-408 peptide (peptide)", "peptide": "not shown", "modifications": "phosphoserine at 396 (tau numbering)"}, "B6": {"name": "HJ8.5 (antibody, V domains shown)", "VH": "EVKVEESGGGLVQPGGSMKLSCVVSGFTFSNYWVNWVRQSPEKGLEWVAQIRLKSDNYATHYEESVKGRFTISRDDSKSSVYLQMNNLRAEDSGIYYCTNWEDYWGQGTTLTVSS", "VL": "DIVLTQSPASLAVSLGQRATISCRASQSVSTSRYSYIHWYQQKPGQPPKLLIKYASNLESGVPARFSGSGSGTDFTLNIHPLEEEDAATYYCHHSWEIPLTFGAGTKLELK"}, "B7": {"name": "IPN002 (antibody, V domains shown)", "VH": "EVHLVESGGALVKPGGSLKLSCAASGFSFSKYGMSWVRQTPDKRLEWVATISSSGSRTYYPDSVKGQFTISRDNAKNTLYLQMSSLKSEDTAMYYCSISWDGAMDYWGQGTSVTVSS", "VL": "DVLMTQTPLSLPVSLGDQASISCKSSQSIVHSNGNTYLEWYLQKPGQSPKLLVYKVSNRFSGVPDRFSGSGSGTDFTLKISRVEAEDLGTYYCFQGSLVPWAFGGGTKLEIK"}}, "key": {"[1]": {"molecular_target": "T1, P-S396 Tau in Alzheimer brain extracts (human, UniProt P10636 2-758, phosphoserine at 396)", "T1 construct": "Brain-derived; Defined by the western blot signal for P-S396; also called S-P396", "T1 sequence (P10636 other isoform, or with tags, fused parts or gaps limits assumed)": "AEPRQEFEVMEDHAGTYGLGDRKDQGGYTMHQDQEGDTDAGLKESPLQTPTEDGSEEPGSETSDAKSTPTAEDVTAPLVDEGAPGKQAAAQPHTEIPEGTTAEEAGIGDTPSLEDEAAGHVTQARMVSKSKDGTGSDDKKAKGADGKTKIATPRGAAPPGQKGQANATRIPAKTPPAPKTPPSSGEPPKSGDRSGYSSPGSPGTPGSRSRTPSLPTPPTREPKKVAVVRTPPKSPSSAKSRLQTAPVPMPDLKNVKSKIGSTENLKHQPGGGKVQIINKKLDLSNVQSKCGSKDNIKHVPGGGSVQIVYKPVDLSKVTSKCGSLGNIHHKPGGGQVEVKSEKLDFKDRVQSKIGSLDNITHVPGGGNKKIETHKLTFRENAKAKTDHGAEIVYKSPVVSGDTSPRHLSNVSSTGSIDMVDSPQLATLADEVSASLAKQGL", "assay": "immunodepletion of AD brain extract, P-S396 western blot", "procedure": "FIG. 16. Quantification of P-S396 Tau western blot signal after immunodepleting Alzheimers diseased brain extracts using different amounts of hC10-2 variants N32S, N32Q, N32S_A101T, N32Q_ A101T, N32Q_D55E and N32S_ D55E.\nSamples were boiled in 1×LDS loading buffer and 100 mM DTT. A volume corresponding to 3 μl of extracts were loaded on a 4-12% Bis-Tris NuPAGE Gel (LifeTech Novex). After electrophoresis, the proteins were blotted over to a ImmobilonFL PVDF membrane ([…], IPFL10100, Millipore). The membrane was blocked with SEA blocking buffer (Prod#37527, Thermo). Tau and P-tau levels were assessed in the samples using Tau5 (Abcam ab80579, 1:2000) mouse C10-2 (1 μg/ml), P-5199/202 (Invitrogen 44768 G, 1:1000), P-5422 (Abcam ab79415, 1:750), human IPN (1 μg/ml). Gapdh and actin were used as loading controls (Abcam ab9484, 1:2000, Sigma A5441, 1:20000). Secondary fluorophore conjugated IgG antibodies was used (IRDye 800CW Goat anti-Human, IRDye 800CW, Goat anti-rabbit, IRDye 680 Goat anti-mouse, LI-COR biosciences) and the signal was quantified using Odyssey CLx and Image studio software (LI-COR biosciences). Quantification of individual bands as well as signal in whole lanes was done and from this sigmoidal dose-response curves were plotted and when possible max effect and EC50 values were estimated."}, "[2]": {"molecular_target": "T2, Antibody C10-2 (humanized C10-2)", "T2 construct": "also called human C10-2; hC10-2", "assay": "fluid phase peptide inhibition of antibody binding to peptide-coated MSD wells", "procedure": "(§1) FIG. 2. Peptide inhibition assay illustrating apparent affinity hC10-2 and related C10-2 variants.\n(§2) Plates were washed 5 times in (PBS, 0.1% BSA, 0.1% NP40) and anti-human total Tau (MSD sulfo tagged 1:50) was added to detect bound antibody which reflect non-inhibited free antibody."}, "[3]": {"molecular_target": "T3, Antibody N32S (hC10-2_N32S)", "T3 construct": "Variant of humanized C10-2 with light chain N32S; also called hC10-2_N325; C10-2_N325", "assay": "fluid phase peptide inhibition of antibody binding to peptide-coated MSD wells", "procedure": "as §1, §2"}, "[4]": {"molecular_target": "Antibody N32S, A101T (hC10-2_N32S_A101T)", "assay": "fluid phase peptide inhibition of antibody binding to peptide-coated MSD wells", "procedure": "as §1, §2"}, "[5]": {"molecular_target": "T4, pathological hyperphosphorylated tau from human Alzheimer's disease brain (AD-P3 antigens) (human, UniProt P10636 2-758, hyperphosphorylated; phosphoserine at 396)", "T4 construct": "Brain-derived material with a mixture of tau isoforms and aggregates; Also used for tangles stained in AD brain sections and for the S1, S1p and P3 fractions and lysates of AD brain; also called P3 tau isolated from human AD brains", "T4 sequence (P10636 other isoform, or with tags, fused parts or gaps limits assumed)": "as above", "assay": "binding to tau isolated from diseased and healthy brains"}}, "data": [{"binder": "B1", "values": [{"measurement": "percent decrease in the S-P396 signal at 75 ng antibody", "setting": "[1]", "value": "≥ 28", "unit": "%"}]}, {"binder": "B2", "values": [{"measurement": "percent decrease in the S-P396 signal at 75 ng antibody", "setting": "[1]", "value": 16, "unit": "%"}]}, {"binder": "B3", "values": [{"measurement": "percent decrease in the S-P396 signal at 75 ng antibody", "setting": "[1]", "value": "≥ 28", "unit": "%"}]}, {"binder": "B4", "values": [{"measurement": "percent decrease in the S-P396 signal at 75 ng antibody", "setting": "[1]", "value": "≥ 28", "unit": "%"}]}, {"binder": "B5", "values": [{"measurement": "IC50", "setting": "[2]", "value": 24, "unit": "nM"}, {"measurement": "IC50", "setting": "[3]", "value": 50, "unit": "nM"}, {"measurement": "IC50", "setting": "[4]", "value": 34, "unit": "nM"}]}, {"binder": "B6", "values": [{"measurement": "AD/ctrl (binding to tau from AD brain over tau from healthy control brain)", "setting": "[5]", "value": 3, "unit": "ratio"}]}, {"binder": "B7", "values": [{"measurement": "AD/ctrl (binding to tau from AD brain over tau from healthy control brain)", "setting": "[5]", "value": 3, "unit": "ratio"}]}]}
